Assay results from the DeepSol protein solubility set.

assay: soluble on expression in E. coli; label from the status in PepcDB or PDB records

Sequence | soluble on expression in E. coli
MSRDPTLILDESNLVIGKDGRVHYTFTTEDDNPKVRLASKCLGTAHFNQLMIERGDQATSYVAPVVVEGTGNPTGLFKDLKEISLELTDTANSQLWSKIKLTNRGMLQEYYDGKIKTEIVNSARGVATRISEDTDKKLALINDTIDGIRREYRDADRKLSASYQAGIEGLKATMANDKIGLQAEIKASAQGLSQKYDDELRKLSAKITTTSSGTTEAYESKLAGLRAEFTRSNQGTRTELESQISGLRAVQQSTASQISQEIRDREGAVSRVQQSLESYQRRMQDAEENYSSLTHTVRGLQSDVGSPTGKIQSRLTQLAGQIEQRVTRDGVMSIISGAGDSIKLAIQKAGGINAKMSGNEIISAINLNSYGVTIAGKHIALDGNTTVNGTFTTKIAEAIKIRADQIIAGTIDAARIRVINLNASSIVGLDANFIKAKIGYAITDLLEGKVIKARNGAMLIDLNTAKMDFNSDATINFNSKNNALVRKDGTHTAFVHFSNATPKGYTGSALYASIGITSSGDGVNSASSGRFAGLRSFRYATGYNHTAAVDQTEIYGDNVLVVDDFNITRGFKFRPDKMQKMLDMNDLYAAVVALGRCWGHLANVGWNTAHSNFTSAVNRELNNYITKI | not soluble
MGSDKIHHHHHHMKNLLDLSYEELVTEITNLGLERYRADQILDWVFDKKVNNFDEMTNLSKKHRALLKEHFSISFLKLLDKKVSRIDGTTKFLWELEDGNTIESVMLFHPDRITACISTQVGCPVKCIFCATGMSGFVRNLTTGEIVAQILSMEKEEKKKIGNVVYMGMGEPLLNYENTIKSIRILNHKKMGNIGIRRITISTVGIPDRIIQLAEEGLDVKLALSLHAPTNFKRDQLVPLNKKYSIEEILNAVKIYQRKTGNRVTIEYVLIRGINDEISDAKKLAEILRNMKVFVNLIPVNPTVEGLRRPSRERLLTFKRILLENGIEAEIRREKGTDIEAACGQLRLKRIKSRS | not soluble
MGSDKIHHHHHHLRLQLSTWPEVADYLSTRRGVIIPIGSTEQHGPSGLIGTDAITAEVVSWRAGEVLDTLVAPTIAVGMAHHHMAFPGSMTLRPSTLIAVIRDTILALSSHGFTRFLFVNGHGGNIPSIQSAFYEAYEEMRVHHGDGAPDIACQLCSWFSSPAVEALAAEAFGDAEGSHATPSEVSVTWHAYPDQQRTPVLDPPVAPQGRFTDSRDFRRAFPDGRIGSNPALATPELGGRFVEVAVDYIATTYGDFLKG | not soluble
TPDRHQFPGLANKTYFNFGGQGILPTVALEAITAMYGYLQENGPFSIAANQHIQQLIAQLRQALAETFNVDPNTITITDNVTTGCDIVLWGLDWHQGDEILLTDCEHPGIIAIVQAIAARFGITYRFFPVAATLNQGDAAAVLANHLGPKTRLVILSHLLWNTGQVLPLAEIMAVCRRHQGNYPVRVLVDGAQSAGSLPLDFSRLEVDYYAFTGHAWFAGPAGVGGLYIHGDCLGEINPTYVGWRSITYGAKGEPTGWAEGGKRFEVATSAYPQYAGLLAALQLHQRQGTAEERYQAICQRSEFLWRGLNQLPHVHCLATSAPQAGLVSFTVDSPLGHRAIVQKLEEQRIYLRTIADPDCIRACCHYITDEEEINHLLARLADFGP | soluble
MSLRLLRVVGCPEWVIDHSLAVRKKALELSRELPVDMKLVEEGAILHDIGRCRTSGVEHAVEGARILEGFGYPPEVVRIVERHVGAGIPPEEAKALGLPPGDYMPRTLEEKIVAHADNLINGSDEVDIDFVIKKWSDRLGADHPSIESLKRLHEELLGHL | not soluble
YDTAYGGFGRGMKFPMHHALLLLARASMAGDRRALNMLTGTLDHMLFSGVHDLVEGGLHRYSVTRDWRLPHYEKMLYDQAWIIQVLAEAYAASGDRLYLDFAVSTLEFAMSWLWTGRGFASSVDADTGEGEGAYYT | not soluble
MYFVDRSKIEKTLGFFEHQLALFDSQTDWQSEIGELALQRIGHLLIECILDTGNDMIDGFIMRDPGSYDDIMDILVDEKVVTEKEGDELKKLIAYRKTLVQQYLLADSGELYRLIKAHQTALQDFPKRIRSYLETELGPVSAFKLEHHHHHH | soluble
MFRLRLISGFNFAPIIADAIVDLSKDFFQSDNSEVCCGQILYLAISDEEGPGKPILDSKHVEVILTLDLPEDMDVYEKFGLSAYRQHILLRITQEARDQNALLTIKDLVKLLKSSYSTIIRDLKYFREKGLYVPLRGIVKDIGPSSHKSKIVELYLKGYTTTEIQRSTRHSLQSIERYIKDFSRVSILTQKGESIDNIRLIVGISERLVKEYQELFIKYKDGDNKQRVEELIDNITVYDSPMSFKKNSGMRM | not soluble
MTFNHKKMEPKWQQYWSEHNTFKTTEDKNKENFYALDMFPYPSGAGLHVGHPEGYTATDILSRMKRMQGKNVLHPIGWDAFGLPAEQYAIDTGNDPEEFTALNIANFTRQIKSLGFSYDWDREINTTDPEYYKWTQWIFEKLYENGLAYEAEIAVNWCPALGTVLANEEVIDGKSERGGFPVFRKPMRQWMLKITAYADRLLDDLDLVDWPENIKDMQRNWIGRSEGAEVTFKIKDSDETFNVFTTRPDTLFGATYTVFAPEHELIEKITTPEQKEAVEAYKKQVELKSELERTDLAKDKTGVFTGAYAINPINGEEVPIWIADYVLIQYGTGAIMAVPAHDERDFEFAQQFGLNIRPVLEGGDVTKEAFTGDGPHINSDFLNGLAKAEAITAAIDWLEKEGIGSRKITYRLRDWLFSRQRYWGEPIPVIHWEDGETTLVPEEELPLLLPKATEIKPSGTGESPLANLHDWVNVTDENGRKGRRETNTMPQWAGSSWYFLRYIDPKNSEAIADKEKLAEWLPVDVYIGGAEHAVLHLLYARFWHKFLYDIGVVPTKEPFQKLFNQGMILGENNEKMSKSRGNVVNPDEVVEKYGADTLRLYEMFMGPLEASIAWNENGLEGARKFLDRIWRLLVTEEGTLAEKVTTDANANLEKAYHHMVKTVTNHYENLRFNTGISQLMIFINEAYKQDTIPKQYVEGFVQLLSPIAPHLAEELWEILGHTETISYVAWPTYDETKLVEDEVEIVLQVNGKVKSKITVAKSLGKEELEKIAQEDNKMKENLEGKTIRKVIVVPGKLVNIVAN | not soluble
MSATMQSETVYDAVIVGGGVAGGTAALLLRQRGCSVALLEKRPLDYYKALCTHFIQPSAVPILRRVGLDHVLEPEASTRTKASFVTSEGVIDTPGGYTDDAATAYAYNLERRVLDPALRARARSEGVDLLDEATVTACRLQADGLWRVEADADTDTDGARHPRVLRARVVIAADGRRSQMAQWLNNAAVQHDNQRAAVFAQFEGIAVPGGNRSLFILAEREMGFVYPLTGGRTLLSAYVEKDRAAQWRHSADAGAPLLDFFARLAPGLDLAGARLLTPVLGYADYPSQFRQPVCGAVPFIGDAALSLDPMSGVGCGFAMEAAALLDEHLGPALQAQGNSAIGPALDAYASRFDTHFAAHARGIVADSLIAKQPAAQAALYRAVIADPALQRDYLALTGRLITPQAFQRAYFSAHVRSQRAATTHAHPPERASELSLEHHHHHH | not soluble
MDNVTSSQLLSVRHQLAESAGLPRDQHEFVSSQAPQSLRNRYNNLYSHTQRTLDMADMQHRYMTGASGINPGMLPHENVDDMRSAITDWSDMREALQHAMGIHADIVDYKDDDDK | soluble
MSLYIKVLSVSELNNYIKRVVDSDYILSNAQVKGEISNFKFHSSGHVYFSLKDEGGKINCIMFRSNAEKLKFIPENGMKVNVKGRVSVYVKDGAYQLYCTEITPEGRGELYEAFEKLKEKLLNEGMFSEEHKRNIPKYPKMIGVITSPTGAAIRDIINVATRRNKSVDMIICPTLVQGVNAPGELIKALDYLNNREDIDTIILARGGGSIEELWAFNDEKLAYAVYNSKKPVVTGVGHETDFTIVDFVSDRRAPTPSAAAEIAVPNINEEMNSFVSLKRALDTSIKTYIQNKCNQLEIAKRMLEKNSPEILIVNGYSSIDNFKYVLDMRIANKIKIEKEKILRYNSILKSNSPINILNKGYSIISDEIGNNISNVDKLKEPDKVHITFKDGKVNAKIDILREGHHHHHH | soluble
MRQGGIYQTKDANKGPVTVPPLRTKTPPPPPPPVRRHEIYEQHKRYTSAPNLQSAVIRIQDDKPRSIMKRNDLVRREQMLYPTVDTQVVKSVVKKPTVTETVQRFEETRRTEEVERRVQRREKKERRSRHHSSSRHHSGWEGHTGGYQEYRQGAITSSLPRRQIIREADRAMTEEEMNKVVREAYAAADEARKDSRHRSSSLSRGGHGGGGQETYYRQETTRRQQHNNYDDNFNRGIAHARYGSLSDSLRRGELQYVPNGEVRQSFYRDGSNGGQRMHKSYSTRDVFTGDGYDDRRSVSSFRRGSQQQVSPFVEFPPTLPRRGGGGDYRREEDAYFRPVSKSRSYADWDDAGRAGMGREVRRYDDDMSRLEAEFRDSLLMPMPAGNMNERDHRTEQLPGGYETFNKERHANSGRRSGRDGKPVDFNEATQEYNYKREQTLNDDRRRR | not soluble
